Laboratory results as given in PMC2139800 (The Journal of Cell Biology, 1997).

Biological target: F-actin (unlabeled) (rabbit, UniProt P68135 1-377)
Assay: co-sedimentation

stoichiometry N: ~500 actin molecules per His6–l-afadin-C molecule
B1: His6–l-afadin-C (aa 1631–1829) (domain or fragment)
chain: DRVRQEEDGRHQEEERVKRDAEEKRRQEEGYYSRLEAERRRQHEEAARRLLEPEEPGLSRPPLPQDYEPPSQSSAPSAPPPPPQRNASYLKTQVLSPDSLFTAKFVAYDDDDEEENYVPAGPNSYSGSAGTTAGTYDAPRDTREKLSRSQDADLPGSSGAPENLTFRERQRLFSQGQDVSDKVKASRKLTELENELNTK
